In patent CN110734897A (ZHEJIANG BLUE SHIELD PHARMA CO LTD, dated 2020):

Biological target: T1, 重组人SIRPα-his融合蛋白 (Acro Biosystems SIA-H5225) (human, UniProt P78324 31-370)
T1 construct: Bought reagent; also called 人SIRPα重组蛋白; not shown: his tag
Assay: indirect ELISA screen of hybridoma supernatants, SIRPα-his coated

T1 sequence (P78324 31-370 limits assumed): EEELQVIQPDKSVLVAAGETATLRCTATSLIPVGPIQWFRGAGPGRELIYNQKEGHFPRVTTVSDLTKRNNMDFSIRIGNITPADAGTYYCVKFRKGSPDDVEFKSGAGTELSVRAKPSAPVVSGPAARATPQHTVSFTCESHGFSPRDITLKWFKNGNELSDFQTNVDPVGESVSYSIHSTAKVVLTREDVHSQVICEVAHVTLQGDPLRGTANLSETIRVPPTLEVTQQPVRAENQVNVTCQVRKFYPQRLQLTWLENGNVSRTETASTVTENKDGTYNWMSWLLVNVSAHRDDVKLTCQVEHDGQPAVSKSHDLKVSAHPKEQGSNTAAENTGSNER

binding result: binds
B1: 杂交瘤细胞株12G6产生的抗人SIRPα单克隆抗体 (antibody, IgG2b, V domains shown)
VH: QIQLVQSGPELKKPGETVKISCKASGYTFTNYGMHWVKQAPGKDLKWMGWINTYTGEPTNADDFKGRFAFSLETSDRTAFLQINNLKNEDTATYFCARGHHYGNYAWFAYWGQGTLVTVSA
VL: DIVMTQSHKFMSTSVGDRVSITCKASQDVSLAVAWYQQKPGQSPKVLIYWASTRHTGVPDRFAGSGSGTDYTLTISSVQAEDLALYYCQQHYSTPWTFGGGTKLEIN
notes: also called 纯化的抗人SIRPα单克隆抗体
